Patent EP4640709A1 (CHIOME BIOSCIENCE INC., dated 2025)
Read-outs that look alike come from different tables or passages of the source.

Assays:
human CX3CR1 [1] = molecular target: T1, human CX3CR1 (human, UniProt P49238 1-355); experiment: binding to hCX3CR1-expressing Eurofins cells
T1 construct: Expressed on Ba/F3 cells (made by the inventors from P49238-1); also called hCX3CR1
T1 sequence: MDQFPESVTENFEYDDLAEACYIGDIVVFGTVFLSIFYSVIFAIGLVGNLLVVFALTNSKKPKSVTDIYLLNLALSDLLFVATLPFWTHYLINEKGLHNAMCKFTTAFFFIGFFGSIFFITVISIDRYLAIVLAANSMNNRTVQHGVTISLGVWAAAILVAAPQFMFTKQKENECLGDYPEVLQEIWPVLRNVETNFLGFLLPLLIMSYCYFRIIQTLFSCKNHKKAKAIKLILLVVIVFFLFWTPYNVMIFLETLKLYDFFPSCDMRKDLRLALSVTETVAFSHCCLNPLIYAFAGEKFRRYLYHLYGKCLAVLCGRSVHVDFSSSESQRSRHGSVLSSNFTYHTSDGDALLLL

human CX3CR1 [2] = molecular target: T1, human CX3CR1; experiment: cell-based or functional assay
human CX3CR1 [3] = molecular target: T1, human CX3CR1; experiment: flow cytometry, chimeric CX3CR1-expressing Ba/F3 cells, 200 nM, grade vs positive antibody (+++ >70%, ++ 40-70%, + 10-40%, - <10%)
[4] = molecular target: T2, hCX3CR1-4 (chimeric CX3CR1); experiment: as above
T2 construct: Whole, on Ba/F3 cells

[5] = molecular target: T3, hCX3CR1-3 (chimeric CX3CR1); experiment: as above
T3 construct: Whole, on Ba/F3 cells

[6] = molecular target: T4, hCX3CR1-1 (chimeric CX3CR1); experiment: as above
T4 construct: Whole, on Ba/F3 cells

[7] = molecular target: T5, hCX3CR1-2 (chimeric CX3CR1); experiment: as above
T5 construct: Whole, on Ba/F3 cells

[8] = molecular target: T6, mCX3CR1-1 (chimeric CX3CR1); experiment: as above
T6 construct: Whole, on Ba/F3 cells

human CX3CR1 [9] = molecular target: T1, human CX3CR1; experiment: flow cytometry, binding to hCX3CR1-expressing Ba/F3 cells
mouse CX3CR1 [10] = molecular target: T7, mouse CX3CR1 (mouse, UniProt Q9Z0D9 1-354); experiment: flow cytometry, CX3CR1-expressing Ba/F3 cells
T7 construct: whole, on cells; Expressed on Ba/F3 cells; also called mCX3CR1
T7 sequence (looked up): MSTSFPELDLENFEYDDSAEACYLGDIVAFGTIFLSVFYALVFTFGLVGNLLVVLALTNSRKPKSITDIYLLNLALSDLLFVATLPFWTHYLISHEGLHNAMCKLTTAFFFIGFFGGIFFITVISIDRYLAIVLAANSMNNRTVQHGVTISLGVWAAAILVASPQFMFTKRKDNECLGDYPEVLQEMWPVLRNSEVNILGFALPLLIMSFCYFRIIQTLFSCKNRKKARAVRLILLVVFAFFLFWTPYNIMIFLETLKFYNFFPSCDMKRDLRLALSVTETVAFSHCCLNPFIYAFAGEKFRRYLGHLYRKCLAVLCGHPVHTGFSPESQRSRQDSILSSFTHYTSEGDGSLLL

rat CX3CR1 [11] = molecular target: T8, rat CX3CR1 (rat, UniProt P35411 1-354); experiment: flow cytometry, CX3CR1-expressing Ba/F3 cells
T8 construct: whole, on cells; Expressed on Ba/F3 cells; also called rCX3CR1
T8 sequence (looked up): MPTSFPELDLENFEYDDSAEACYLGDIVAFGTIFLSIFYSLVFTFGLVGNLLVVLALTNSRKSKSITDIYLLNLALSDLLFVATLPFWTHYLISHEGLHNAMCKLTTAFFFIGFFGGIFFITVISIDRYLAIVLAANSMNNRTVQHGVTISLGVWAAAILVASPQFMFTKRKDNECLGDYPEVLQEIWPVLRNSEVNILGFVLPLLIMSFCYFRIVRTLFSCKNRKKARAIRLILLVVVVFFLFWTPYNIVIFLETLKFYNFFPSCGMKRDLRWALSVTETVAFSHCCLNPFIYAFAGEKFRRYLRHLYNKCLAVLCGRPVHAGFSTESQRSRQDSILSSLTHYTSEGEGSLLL

human CX3CR1 [12] = molecular target: T1, human CX3CR1; experiment: cell-based or functional assay; remark: listed apart in the source
mouse CX3CR1 [13] = molecular target: T7, mouse CX3CR1; experiment: flow cytometry, chimeric CX3CR1-expressing Ba/F3 cells
[14] = molecular target: T9, mCX3CR1-4 (chimeric CX3CR1); experiment: as above
T9 construct: Whole, on Ba/F3 cells

[15] = molecular target: T10, mCX3CR1-3 (chimeric CX3CR1); experiment: as above
T10 construct: Whole, on Ba/F3 cells

[16] = molecular target: T11, mCX3CR1-2 (chimeric CX3CR1); experiment: as above
T11 construct: Whole, on Ba/F3 cells

human CX3CR1 [17] = molecular target: T1, human CX3CR1; experiment: flow cytometry, EC50 on hCX3CR1-expressing Ba/F3 cells, against m1F8
[18] = molecular target: T9, mCX3CR1-4 (chimeric CX3CR1); experiment: flow cytometry, chimeric CX3CR1-expressing Ba/F3 cells, 200 nM, grade vs positive antibody (+++ >70%, ++ 40-70%, + 10-40%, - <10%)
human CX3CR1 [19] = molecular target: T1, human CX3CR1; experiment: cell-based or functional assay; remark: listed apart in the source
mouse CX3CR1 [20] = molecular target: T7, mouse CX3CR1; experiment: flow cytometry, CX3CR1-expressing Ba/F3 cells, relative to Synagis
rat CX3CR1 [21] = molecular target: T8, rat CX3CR1; experiment: as above

B1: h1F8-2-1 (antibody, V domains shown)
VH: QVQLVQSGAEVKKPGSSVKVSCKASGFTFTNYWMQWIRQAPGQGLEWIGAIYPGSGESRYTRKFKGRATITADKSTSTAYMELSSLRSEDTAVYYCARWAGYSRNAAYWGQGTLVTVSS
VL: DIVMTQTPLSLPVTPGEPASISCRSRQSIVHSSGNTYLEWYLQKPGQSPQLLIYKVSNRFSGVPDRFSGSGSGTDFTLKISRVEAEDVGVYYCFQGSHIPPTFGGGTKVEIK
notes: Humanized antibody; also called humanized 1F8 antibody h1F8-2-1
EC50 (human CX3CR1 [1]): 4.42 nM
Cell migration inhibitory activity (IC50, nM) (human CX3CR1 [2]): 2.02 nM

B2: m1F8-1 antibody (antibody, V domains shown)
VH: QVQLQQSGAELARPGASVKLSCKASGFTFTNYWMQWIKQRPGQGLEWIGAIYPGSGESRYTRKFKGKATLTADKSSSTAYMQLNSLASEDSAVYYCARWAGYSRNAAYWGQGTLVTVSA
VL: DVLMTQTPLSLPVSLGDQASISCRSSQSIVHSSGNTYLEWYLQKPGQSPKLLIYKVSNRFSGVPDRFSGSGSGTDFTLKISRVEAEDLGVYYCFQGSHIPPTFGGGTKLEIK
notes: also called activity-enhanced m1F8 antibody
relative measured value (flow cytometry reactivity, MFI) compared to positive antibody at 200 nM (human CX3CR1 [3]): > 70%
relative measured value (flow cytometry reactivity, MFI) compared to positive antibody at 200 nM [4]: > 70%
relative measured value (flow cytometry reactivity, MFI) compared to positive antibody at 200 nM [5]: > 70%
relative measured value (flow cytometry reactivity, MFI) compared to positive antibody at 200 nM [6]: 40 to 70%
relative measured value (flow cytometry reactivity, MFI) compared to positive antibody at 200 nM [7]: > 70%
relative measured value (flow cytometry reactivity, MFI) compared to positive antibody at 200 nM [8]: > 70%
EC50 (human CX3CR1 [9]): 6.69 nM
binding result (mouse CX3CR1 [10]): no binding (tested: <10% of positive antibody at 200 nM)
binding result (rat CX3CR1 [11]): no binding (tested: <10% of positive antibody at 200 nM)
Cell migration inhibitory activity (IC50, nM) (human CX3CR1 [12]): 5.32 nM
relative measured value (flow cytometry reactivity, MFI) compared to positive antibody at 200 nM (mouse CX3CR1 [13]): < 10%
relative measured value (flow cytometry reactivity, MFI) compared to positive antibody at 200 nM [14]: < 10%
relative measured value (flow cytometry reactivity, MFI) compared to positive antibody at 200 nM [15]: < 10%
relative measured value (flow cytometry reactivity, MFI) compared to positive antibody at 200 nM [16]: < 10%

B3: m1F8-2 antibody (antibody, V domains shown)
VH: QVQLQQSGAELARPGASVKLSCKASGFTFTNYWMQWIKQRPGQGLEWIGAIYPGSGESRYTRKFKGKATLTADKSSSTAYMQLNSLASEDSAVYYCARWAGYSRNAAYWGQGTLVTVSA
VL: DVLMTQTPLSLPVSLGDQASISCRSRQSIVHSSGNTYLEWYLQKPGQSPKLLIYKVSNRFSGVPDRFSGSGSGTDFTLKISRVEAEDLGVYYCFQGSHIPPTFGGGTKLEIK
notes: as for B2
fold improvement in binding activity compared to the original m1F8 antibody (human CX3CR1 [17]): ≥ 70 fold
relative measured value (flow cytometry reactivity, MFI) compared to positive antibody at 200 nM [18]: 10 to 40%
relative measured value (flow cytometry reactivity, MFI) compared to positive antibody at 200 nM (human CX3CR1 [3]): > 70%
relative measured value (flow cytometry reactivity, MFI) compared to positive antibody at 200 nM [4]: > 70%
relative measured value (flow cytometry reactivity, MFI) compared to positive antibody at 200 nM [5]: > 70%
relative measured value (flow cytometry reactivity, MFI) compared to positive antibody at 200 nM [6]: 40 to 70%
relative measured value (flow cytometry reactivity, MFI) compared to positive antibody at 200 nM [7]: > 70%
relative measured value (flow cytometry reactivity, MFI) compared to positive antibody at 200 nM [8]: > 70%
improvement in inhibitory activity against fractalkine-dependent cell migration compared to the original m1F8 antibody (human CX3CR1 [19]): ≥ 15 fold
EC50 (human CX3CR1 [9]): 2.67 nM
binding result (mouse CX3CR1 [10]): no binding (tested: <10% of positive antibody at 200 nM)
binding result (rat CX3CR1 [11]): no binding (tested: <10% of positive antibody at 200 nM)
Cell migration inhibitory activity (IC50, nM) (human CX3CR1 [12]): 2.96 nM
relative measured value (flow cytometry reactivity, MFI) compared to positive antibody at 200 nM (mouse CX3CR1 [13]): < 10%
relative measured value (flow cytometry reactivity, MFI) compared to positive antibody at 200 nM [15]: < 10%
relative measured value (flow cytometry reactivity, MFI) compared to positive antibody at 200 nM [16]: < 10%

B4: h1F8-2-2 antibody (antibody, IgG1, V domains shown)
VH: QVQLVQSGAEVKKPGSSVKVSCKASGFTFTNYWMQWIRQAPGQGLEWIGAIYPGSGESRYTRKFKGKATITADKSTSTAYMELSSLRSEDTAVYYCARWAGYSRNAAYWGQGTLVTVSS
VL: DIVMTQTPLSLPVTPGEPASISCRSRQSIVHSSGNTYLEWYLQKPGQSPQLLIYKVSNRFSGVPDRFSGSGSGTDFTLKISRVEAEDVGVYYCFQGSHIPPTFGGGTKVEIK
notes: Humanized antibody; also called humanized 1F8 antibody (h1F8-2-2)
EC50 (human CX3CR1 [1]): 3.1 nM
binding result (mouse CX3CR1 [20]): no binding
binding result (rat CX3CR1 [21]): no binding
Cell migration inhibitory activity (IC50, nM) (human CX3CR1 [2]): 1.27 nM

B5: h1F8-2-3 (antibody, V domains shown)
VH: QVQLVQSGAEVKKPGSSVKVSCKASGFTFTNYWMQWIRQAPGQGLEWIGAIYPGSGESRYTRKFKGRATLTADKSTSTAYMELSSLRSEDTAVYYCARWAGYSRNAAYWGQGTLVTVSS
VL: DIVMTQTPLSLPVTPGEPASISCRSRQSIVHSSGNTYLEWYLQKPGQSPQLLIYKVSNRFSGVPDRFSGSGSGTDFTLKISRVEAEDVGVYYCFQGSHIPPTFGGGTKVEIK
notes: Humanized antibody; also called humanized 1F8 antibody h1F8-2-3
EC50 (human CX3CR1 [1]): 4.02 nM
Cell migration inhibitory activity (IC50, nM) (human CX3CR1 [2]): 1.4 nM

B6: h1F8-2-4 (antibody, V domains shown)
VH: QVQLVQSGAEVKKPGSSVKVSCKASGFTFTNYWMQWIRQAPGQGLEWIGAIYPGSGESRYTRKFKGRVTITADKSTSTAYMELSSLRSEDTAVYYCARWAGYSRNAAYWGQGTLVTVSS
VL: DIVMTQTPLSLPVTPGEPASISCRSRQSIVHSSGNTYLEWYLQKPGQSPQLLIYKVSNRFSGVPDRFSGSGSGTDFTLKISRVEAEDVGVYYCFQGSHIPPTFGGGTKVEIK
notes: Humanized antibody; also called humanized 1F8 antibody h1F8-2-4
EC50 (human CX3CR1 [1]): 4.42 nM
Cell migration inhibitory activity (IC50, nM) (human CX3CR1 [2]): 2.61 nM
